We go through 2 molecules from US20200392227A1 (LYVGEN BIOPHARMA, published 2020).

The target in test [1] is T1, human FcRIIA protein (MednaBio, E1033) (human, UniProt P12318 34-218, limits assumed).
T1 construct: Bought; also called FcγRIIA
T1 sequence (looked up): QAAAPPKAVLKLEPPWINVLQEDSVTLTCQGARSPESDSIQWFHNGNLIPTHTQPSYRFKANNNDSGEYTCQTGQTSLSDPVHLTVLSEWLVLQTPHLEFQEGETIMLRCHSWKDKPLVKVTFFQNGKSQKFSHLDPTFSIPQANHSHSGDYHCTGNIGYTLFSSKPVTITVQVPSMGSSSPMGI
Nature of the test: BLI. The method in brief: (§1)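 Binding was measured by biolayer interferometry on an Octet Red96 System. Commercial human Fc receptor proteins were loaded at 20 μg/mL onto anti-penta-HIS biosensors, which were then dipped into an 8-point 1:3 dilution series of test IgG starting at 300 nM in PBS with 0.1% BSA and 0.02% Tween-20, at pH 7.2 for Fcγ receptors and pH 6 for FcRn. Kd, kon and koff were obtained by global fitting, with data fitted to a 1:1 binding model.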
On the technique in general: BLI is a label-free optical method that tracks binding on a fibre tip over time.

The target of test [2] is T2, human FcRIIB/C protein (MednaBio, E1034) (human, UniProt P31994 43-217, limits assumed).
T2 construct: Bought as FcRIIB/C; also called FcγRIIB; CD32B
T2 sequence (looked up): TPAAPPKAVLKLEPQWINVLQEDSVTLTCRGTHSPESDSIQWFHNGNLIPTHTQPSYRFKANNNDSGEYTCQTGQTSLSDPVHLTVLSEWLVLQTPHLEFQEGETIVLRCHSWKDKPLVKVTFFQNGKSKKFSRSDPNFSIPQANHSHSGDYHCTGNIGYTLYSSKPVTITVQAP
Put plainly: BLI. The method in brief:
as §1

In test [3] the target is T3, human FcRn protein (MednaBio, E1032) (human, UniProt P55899 24-297; P61769 21-119).
T3 construct: Bought; assays at pH 6
T3 sequence (P55899 24-297 limits assumed, form in doubt, chain 1 of 2): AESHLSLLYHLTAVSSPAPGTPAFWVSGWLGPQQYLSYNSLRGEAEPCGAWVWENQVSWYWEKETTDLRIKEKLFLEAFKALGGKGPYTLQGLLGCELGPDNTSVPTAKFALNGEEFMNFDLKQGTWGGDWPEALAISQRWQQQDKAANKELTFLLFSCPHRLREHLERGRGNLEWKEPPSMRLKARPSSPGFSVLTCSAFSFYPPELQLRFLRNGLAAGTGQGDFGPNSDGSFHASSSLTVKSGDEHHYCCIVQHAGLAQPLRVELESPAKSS
T3 sequence (P61769 21-119 limits assumed, form in doubt, chain 2 of 2): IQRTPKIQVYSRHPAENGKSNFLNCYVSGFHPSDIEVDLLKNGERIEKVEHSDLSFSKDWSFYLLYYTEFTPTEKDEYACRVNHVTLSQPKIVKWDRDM
Nature of the test: BLI. The method in brief:
as §1

Test [4] addresses T4, human FcγRI expressed on CHO cells (human, UniProt P12314 16-374).
T4 construct: whole, on cells
Nature of the test: FACS, CHO cells expressing FcγRI. The method in brief:
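Trypsin-harvested CHO cells overexpressing each FcγR were incubated 2 h at 4 °C with IgG mutants in 3% BSA/PBS. Bound IgG was detected with PE-labeled anti-human IgG (2 h, 4 °C), then cells were fixed in 2% PFA and analysed by flow cytometry.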
(In general: A flow cytometer gives signals particle by particle.)

Test [5] deals with T5, human FcγRIIC expressed on CHO cells (human, UniProt P31995 43-323).
T5 construct: whole, on cells
T5 sequence (looked up): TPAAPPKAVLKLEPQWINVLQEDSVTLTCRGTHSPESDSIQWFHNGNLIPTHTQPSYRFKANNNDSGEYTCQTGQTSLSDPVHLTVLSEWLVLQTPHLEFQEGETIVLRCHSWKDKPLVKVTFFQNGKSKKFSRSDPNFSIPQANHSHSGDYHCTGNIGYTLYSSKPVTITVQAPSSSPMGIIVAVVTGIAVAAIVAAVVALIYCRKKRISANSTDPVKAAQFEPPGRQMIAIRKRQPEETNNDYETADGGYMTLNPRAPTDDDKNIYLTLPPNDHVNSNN
Nature of the test: FACS, CHO cells expressing FcγRIIC. The procedure:
(§2) For FACS analysis of the IgG mutants' binding to different FcγRs, FcγR overexpressing CHO cells were harvested using trypsin-EDTA and were suspended in cold staining buffer (3% BSA in PBS). Test IgG mutants, which were diluted in staining buffer, were added into the cells. The mixture was incubated 4° C. for 2 hours, and then washed twice with cold staining buffer and re-suspended in PE-labeled anti-human IgG followed by incubation at 4° C. for 2 hours. The mixture was washed twice with staining buffer and re-suspended in 2% PFA in PBS for FACS.

The target in test [6] is T6, human FcγRIIA(H131) expressed on CHO cells (human, UniProt P12318 34-317).
T6 construct: whole, on cells
T6 sequence (looked up): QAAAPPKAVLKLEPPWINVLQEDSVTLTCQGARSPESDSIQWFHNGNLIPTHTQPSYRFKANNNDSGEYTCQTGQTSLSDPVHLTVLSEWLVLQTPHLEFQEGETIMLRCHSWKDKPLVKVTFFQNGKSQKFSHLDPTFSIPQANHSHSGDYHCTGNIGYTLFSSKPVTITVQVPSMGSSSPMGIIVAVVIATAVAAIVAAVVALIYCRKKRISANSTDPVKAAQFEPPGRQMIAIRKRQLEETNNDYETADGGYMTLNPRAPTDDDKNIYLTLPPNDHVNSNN
Nature of the test: FACS, CHO cells expressing FcγRIIA(H131). The method, then: as §2

For test [7], the target named is T7, human FcRIIIA-F158 protein (MednaBio, E1036) (human, UniProt P08637 17-208).
T7 construct: Bought; also called FcγRIIIA(F)
T7 sequence (P08637 17-208 limits assumed): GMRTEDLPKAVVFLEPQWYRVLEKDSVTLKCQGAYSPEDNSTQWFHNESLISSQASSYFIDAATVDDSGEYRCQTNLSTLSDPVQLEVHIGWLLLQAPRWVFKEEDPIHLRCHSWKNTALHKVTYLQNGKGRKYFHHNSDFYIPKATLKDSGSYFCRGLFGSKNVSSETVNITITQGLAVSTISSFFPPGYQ
Nature of the test: BLI. The method, then:
(§3) These IgG mutants were tested for binding to a panel of human Fc receptors (FcRs), including FcRn, using the Octet Red96 System (ForteBio, Model #Red96). Human FcR proteins were purchased commercially (FcRn, MednaBio, E1032; FcRI, MednaBio, E1031; FcRIIA, MednaBio, E1033; FcRIIB/C, MednaBio, E1034; FcRIIIA-F158, MednaBio, E1036; FcRIIIA-V158, MednaBio, E1035; FcRIIIB, MednaBio, E1037). All Fey receptor assays were performed at pH 7.2; all FcRn assays were performed at pH 6. The Fey receptors were loaded onto anti-penta-HIS1K (ForteBio, Cat #18-5122) biosensors at a concentration of 20 μg/mL. The loaded biosensors was then be dipped into an 8-point 1:3 dilution series of the test IgG molecules (including controls and the mutants described herein) in PBS with 0.1% BSA, 0.02% Tween-20 (pH 7.2) at a starting concentration of 300 nM. Kinetic analysis was performed using a 1:1 binding model and global fitting.

Test [8] concerns the target T8, human FcRIIIA-V158 protein (MednaBio, E1035) (human, UniProt P08637 17-208).
T8 construct: Bought; also called FcγRIIIA(V); FcgRIIIA(V)
Put plainly: BLI. The procedure:
as §3

Test [9] has as its target T1, human FcRIIA protein (MednaBio, E1033). Nature of the test: BLI. The procedure: as §3
The source holds these as a separate data set.

Test [10] concerns the target T2, human FcRIIB/C protein (MednaBio, E1034). Nature of the test: BLI. The method, then: as §3
The source holds these as a separate data set.

For test [11], the target named is T9, human FcRIIIB protein (MednaBio, E1037) (human, UniProt O75015 17-200).
T9 construct: Bought; also called FcγRIIIB; FcgRIIIB
T9 sequence (O75015 17-200 limits assumed): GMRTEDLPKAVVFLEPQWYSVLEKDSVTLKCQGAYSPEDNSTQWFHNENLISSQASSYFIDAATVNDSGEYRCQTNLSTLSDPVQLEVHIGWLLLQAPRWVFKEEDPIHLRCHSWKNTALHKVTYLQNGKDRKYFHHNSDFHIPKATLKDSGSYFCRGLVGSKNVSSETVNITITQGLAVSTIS
Put plainly: BLI. The procedure:
as §3

In test [12] the target is T3, human FcRn protein (MednaBio, E1032). Nature of the test: BLI. The method, then:
as §3
This is another data set of the same source.

The target in test [13] is T10, human FcRI protein (MednaBio, E1031) (human, UniProt P12314 16-288, limits assumed).
T10 construct: Bought; loaded on anti-penta-HIS biosensors; also called FcγRI
T10 sequence (P12314 16-288 limits assumed): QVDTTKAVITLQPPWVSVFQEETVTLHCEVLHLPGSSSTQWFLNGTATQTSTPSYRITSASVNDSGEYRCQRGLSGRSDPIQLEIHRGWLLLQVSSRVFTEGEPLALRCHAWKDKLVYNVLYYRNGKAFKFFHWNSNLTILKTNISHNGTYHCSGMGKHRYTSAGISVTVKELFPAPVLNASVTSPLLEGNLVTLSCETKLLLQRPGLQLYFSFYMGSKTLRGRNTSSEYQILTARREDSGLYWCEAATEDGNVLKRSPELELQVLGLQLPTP
Put plainly: BLI. The method, then:
as §3

Test [14] has as its target T5, human FcγRIIC expressed on CHO cells. Nature of the test: FACS, CHO cells expressing FcγRIIC. This is another data set of the same source.

Like-named read-outs stand apart in the source and are kept apart here.

T8 sequence (P08637 17-208 F176V): as the sequence (P08637 17-208 limits assumed) above, with F160V counted along it
T4 sequence (P12314 16-374): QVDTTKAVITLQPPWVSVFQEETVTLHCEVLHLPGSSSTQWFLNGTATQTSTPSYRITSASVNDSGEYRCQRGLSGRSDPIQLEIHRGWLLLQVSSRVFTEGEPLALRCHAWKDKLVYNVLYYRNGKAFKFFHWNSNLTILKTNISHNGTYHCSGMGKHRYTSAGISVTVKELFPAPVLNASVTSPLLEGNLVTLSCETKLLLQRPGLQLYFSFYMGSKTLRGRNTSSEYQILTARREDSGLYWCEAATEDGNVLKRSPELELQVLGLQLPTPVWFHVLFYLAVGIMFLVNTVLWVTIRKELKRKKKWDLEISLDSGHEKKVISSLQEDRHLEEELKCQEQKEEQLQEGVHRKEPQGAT

B1: anti-CD137 IgG4 with Fc variant G4m17 (antibody)
heavy: EVQLVQSGAEVKKPGESLRISCKGSGYSFSTYWISWVRQMPGKGLEWMGKIYPGDSYTNYSPSFQGQVTISADKSISTAYLQWSSLKASDTAMYYCARGYGIFDYWGQGTLVTVSSASTKGPSVFPLAPCSRSTSESTAALGCLVKDYFPEPVTVSWNSGALTSGVHTFPAVLQSSGLYSLSSVVTVPSSSLGTKTYTCNVDHKPSNTKVDKRVESKYGPPCPPCPAPEFLSVFLFPPKPKDTLMISRTPEVTCVVVDVEQEDPEVQFNWYVDGVEVHNAKTKPREEQFNSTYRVVSVLTVLHQDWLNGKEYKCKVSNKGLPSSIEKTISKAKGQPREPQVYTLPPSQEEMTKNQVSLTCLVKGFYPSDIAVEWESNGQPENNYKTTPPVLDSDGSFFLYSRLTVDKSRWQEGNVFSCSVMHEALHNHYTQKSLSLSLGK
light: SYELTQPPSVSVSPGQTASITCSGDNIGDQYAHWYQQKPGQSPVLVIYQDKNRPSGIPERFSGSNSGNTATLTISGTQAMDEADYYCATYTGFGSLAVFGGGTKLTVLGQPKAAPSVTLFPPSSEELQANKATLVCLISDFYPGAVTVAWKADSSPVKAGVETTTPSKQSNNKYAASSYLSLTPEQWKSHRSYSCQVTHEGSTVEKTVAPTECS
notes: copies: 2 + 2
Broadly, the Kd is the constant that tells how readily two partners part at equilibrium. Higher therefore signals lower affinity. The koff is the rate constant with which the complex falls apart. The kon is the rate constant with which the complex forms. With B1, the Kd turned out to be 0.6 µM in test [1], 0.28 µM in test [2] and 0.052 µM in test [3]. Further, the koff worked out at 0.024 s⁻¹ in [1], 0.019 s⁻¹ in [2] and 0.011 s⁻¹ in test [3]. The kon in test [1] turned out to be 40000 M⁻¹ s⁻¹; in test [2], 68000 M⁻¹ s⁻¹; in [3], 210000 M⁻¹ s⁻¹. Further, the binding result in [4] and in test [5] was “binds” throughout.

B2: anti-CD137 IgG4 with Fc variant G4m20 (antibody)
heavy: EVQLVQSGAEVKKPGESLRISCKGSGYSFSTYWISWVRQMPGKGLEWMGKIYPGDSYTNYSPSFQGQVTISADKSISTAYLQWSSLKASDTAMYYCARGYGIFDYWGQGTLVTVSSASTKGPSVFPLAPCSRSTSESTAALGCLVKDYFPEPVTVSWNSGALTSGVHTFPAVLQSSGLYSLSSVVTVPSSSLGTKTYTCNVDHKPSNTKVDKRVESKYGPPCPPCPAPEFLGSVFLFPPKPKDTLMISRTPEVTCVVVDVSQEDPEVQFNWYVDGVEVHNAKTKPREEQFNSTYRVVSVLTVLHQDWLNGKEYKCKVSNKGLPSSIEKTISKAKGQPREPQVYTLPPSQEEMTKNQVSLTCLVKGFYPSDIAVEWESNGQPENNYKTTPPVLDSDGSFFLYSRLTVDKSRWQEGNVFSCSVMHEALHNHYTQKSLSLSLGK
light: B1 light
notes: copies: 2 + 2
On to B2, for which the binding result is “no binding (tested: 10 ug/ml)” in test [6]; “no binding (tested: 300 nM)” in test [7]; “no binding (tested: 300 nM)” in [8]; “no binding (tested: 300 nM)” in test [9]; “no binding (tested: 300 nM)” in test [10]; “no binding (tested: 300 nM)” in test [11]. Besides, the binding result in test [13] was “no binding (tested: 300 nM)”; in test [14], “no binding (tested: 10 ug/ml)”. This molecule also displayed a Kd in test [12] of 0.019 µM. The molecule further had an off-rate (koff) in [12] of 0.0098 s⁻¹. This molecule yielded an on-rate constant (kon) in [12] of 510000 M⁻¹ s⁻¹.
